One block for each binder: values may come before it.
Legend:
[1] = target: full-length human RON expressed on HEK293T cells (HEK293T-hRON) (Homo sapiens, UniProt Q04912)
[2] = target: T1, Recombinant extracellular domain of human RON (rhRON) (human, UniProt Q04912)
[3] = target: T1, Recombinant extracellular domain of …; experiment: SPR; ProteOn; rhRON immobilised on GLC chip; 1/10 diluted crude periplasmic extracts injected 2 min at 45 µl/min; Langmuir model, off-rate only; settings: one partner purified
[4] = target: T2, RON endogenously expressed on T-47D human breast cancer cells (Homo sapiens (T-47D cell line), UniProt Q04912); experiment: flow cytometry on cells; dilution series of purified nanobodies starting at 500 nM on T-47D cells endogenously expressing RON; anti-FLAG then anti-mouse APC; settings: one partner purified
T2 construct: recepteur d'origine nantais (RON), endogenous on the human breast cancer cell line T-47D; also called hRON; source: endogenous, on T-47D cells
T2 sequence (Q04912 25-1400): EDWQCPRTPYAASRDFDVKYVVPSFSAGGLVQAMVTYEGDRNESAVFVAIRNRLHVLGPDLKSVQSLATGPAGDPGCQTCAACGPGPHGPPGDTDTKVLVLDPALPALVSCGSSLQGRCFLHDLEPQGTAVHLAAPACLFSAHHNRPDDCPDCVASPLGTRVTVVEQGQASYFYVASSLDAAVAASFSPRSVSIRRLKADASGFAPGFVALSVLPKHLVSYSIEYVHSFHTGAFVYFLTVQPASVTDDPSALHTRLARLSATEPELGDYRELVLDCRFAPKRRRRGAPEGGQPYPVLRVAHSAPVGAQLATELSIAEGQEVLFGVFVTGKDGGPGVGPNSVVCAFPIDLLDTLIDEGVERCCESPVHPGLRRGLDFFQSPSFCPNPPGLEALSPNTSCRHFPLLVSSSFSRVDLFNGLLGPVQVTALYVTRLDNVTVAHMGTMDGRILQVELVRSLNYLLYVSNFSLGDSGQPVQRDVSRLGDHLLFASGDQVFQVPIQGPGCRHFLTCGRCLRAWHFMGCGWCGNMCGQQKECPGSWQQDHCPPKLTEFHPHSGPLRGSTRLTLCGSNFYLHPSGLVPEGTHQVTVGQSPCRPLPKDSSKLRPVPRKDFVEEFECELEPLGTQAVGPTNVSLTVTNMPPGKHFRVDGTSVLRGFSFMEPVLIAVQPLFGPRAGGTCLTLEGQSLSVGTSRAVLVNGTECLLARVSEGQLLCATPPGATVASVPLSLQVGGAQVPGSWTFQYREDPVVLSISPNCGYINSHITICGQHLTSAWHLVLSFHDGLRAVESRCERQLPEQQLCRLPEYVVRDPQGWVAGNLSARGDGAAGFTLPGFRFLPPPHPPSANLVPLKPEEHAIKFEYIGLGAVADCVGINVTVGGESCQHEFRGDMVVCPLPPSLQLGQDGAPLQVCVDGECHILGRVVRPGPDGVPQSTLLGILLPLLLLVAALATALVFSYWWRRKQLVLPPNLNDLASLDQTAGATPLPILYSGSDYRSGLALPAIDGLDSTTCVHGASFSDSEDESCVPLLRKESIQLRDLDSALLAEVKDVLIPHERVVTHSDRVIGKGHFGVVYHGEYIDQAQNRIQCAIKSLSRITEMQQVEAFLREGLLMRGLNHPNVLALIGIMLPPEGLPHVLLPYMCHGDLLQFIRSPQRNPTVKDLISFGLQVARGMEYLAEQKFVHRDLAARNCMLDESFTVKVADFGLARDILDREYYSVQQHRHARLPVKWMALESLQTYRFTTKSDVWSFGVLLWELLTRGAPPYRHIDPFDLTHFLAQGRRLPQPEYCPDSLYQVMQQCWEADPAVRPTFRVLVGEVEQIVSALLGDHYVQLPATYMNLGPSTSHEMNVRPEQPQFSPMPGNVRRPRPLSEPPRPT

[5] = target: T2, RON endogenously expressed on T-47D …; experiment: cell-based or functional assay

full-length human RON expressed on HEK293T cells (HEK293T-hRON), sequence (Q04912 25-1400): as above
T1 sequence (Q04912 25-957): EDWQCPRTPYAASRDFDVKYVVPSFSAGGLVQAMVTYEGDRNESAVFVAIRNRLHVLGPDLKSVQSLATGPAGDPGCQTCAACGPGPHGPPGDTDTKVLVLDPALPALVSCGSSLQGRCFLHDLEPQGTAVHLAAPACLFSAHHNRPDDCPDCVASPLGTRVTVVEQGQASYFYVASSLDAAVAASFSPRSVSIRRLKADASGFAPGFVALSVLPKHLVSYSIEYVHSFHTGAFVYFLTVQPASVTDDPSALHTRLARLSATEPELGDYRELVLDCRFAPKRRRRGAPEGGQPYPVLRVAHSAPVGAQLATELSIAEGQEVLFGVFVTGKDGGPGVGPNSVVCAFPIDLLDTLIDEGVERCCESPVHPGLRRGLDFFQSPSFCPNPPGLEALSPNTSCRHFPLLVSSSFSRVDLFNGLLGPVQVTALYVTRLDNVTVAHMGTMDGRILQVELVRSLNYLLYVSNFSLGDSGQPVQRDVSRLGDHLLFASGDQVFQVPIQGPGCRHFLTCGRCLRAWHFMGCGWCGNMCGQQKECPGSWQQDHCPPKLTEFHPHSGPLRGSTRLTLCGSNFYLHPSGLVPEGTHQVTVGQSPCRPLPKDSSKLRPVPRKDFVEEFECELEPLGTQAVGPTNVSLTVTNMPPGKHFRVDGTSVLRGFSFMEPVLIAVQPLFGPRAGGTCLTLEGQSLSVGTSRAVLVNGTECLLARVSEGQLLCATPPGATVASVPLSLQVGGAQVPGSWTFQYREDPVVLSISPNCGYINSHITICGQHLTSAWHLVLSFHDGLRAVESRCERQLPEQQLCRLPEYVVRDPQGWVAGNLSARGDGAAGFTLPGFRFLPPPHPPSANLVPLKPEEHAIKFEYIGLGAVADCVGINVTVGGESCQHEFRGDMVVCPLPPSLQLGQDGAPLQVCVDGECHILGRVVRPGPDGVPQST

B1: 11G06 (VHH)
VHH: EVQLVESGGGLVQPGGSLRLSCAASGSIFSVNAMGWYRQAPGKQRELVASMVSGRSPAYADSVKGRFTISRDNAENTVYLQMNSLKPEDTAVYYCNIKGEYYSRSQYNVWGQGTQVTVSS
- binding result [1]: binds
- binding result [2]: binds

B2: KY704042 (VHH)
VHH: EVQLVESGGGLVQAGGSLRLSCAASGRSFGSYHMGWFRQALGKEREFVAAISSGGGLLDYEDSVKGRFTISRDNAKNTVYLQMNSLTPEDTAVYYCAATARVWGSWFTSDYDYWGQGTLVTVSS
- binding result [1]: binds
- binding result [2]: binds

B3: KY704044 (VHH)
VHH: EVQLVESGGGLVQAGGSLRLSCAASGRTSSIYRMGWFRQAPGKERDIVASIHWSGGRWFYADFVKGRFTISRDNAENTVYLQMSSLKPEDTAVYYCAARTPGTLTYDYWGQGTLVTVSS
- binding result [1]: binds
- binding result [2]: binds

B5: KY704043 (VHH)
VHH: EVQLVESGGGLVQAGGSLRLSCVASGRAYRNYVMGWFRQGPGKEREFVATIRPDDGSILSSNSVRGRITISSDNAKNTVYLQMSTLAPEDTAIYYCAYGTTPSMLARKYDYWGQGTLVTVSS
- binding result [1]: binds
- binding result [2]: binds

B6: KY704062 (VHH)
VHH: EVQLVESGGGLVQAGGSLRLSCAASGLAFSSYAAGWFRQAPGKEREFLAVISRGGGTTYYANFVKGRFSISRDNAENTVYLQMNSLKPEDTAVYYCGADTYFGRLVSDPITSDYWGQGTLVTVSS
- binding result [1]: binds
- binding result [2]: binds

B7: KY704053 (VHH)
VHH: EVQLVESGGGLVQAGDSLRLSCAASGRTFSIYSMGWFRQATGKEREFVAAIRWSGTRTYYADSVKGRFTISGDIAKNTVYLQMNNLKPEDTAVYSCAAGGSRGYVAAPDRWDYWGQGTLVTVSS
- binding result [1]: binds
- binding result [2]: binds

B8: KY704039 (VHH)
VHH: EVQLVESGGGLVQAGGSLRLTCAASGNFFNIITMGWFRQAPGKERELVAVDTAGRSISYLDSVKGRFTIVRDNAKNTVILEMNSLTPEDTAVYYCYATGHRSVTGGIYVTWGQGTLVTVSS
- binding result [1]: binds
- binding result [2]: binds

B9: KY704052 (VHH)
VHH: EVQLVESGGGLVQAGGSLRLSCAASGRTFSDYSMGWFRQAPGKEREPVAAVSRSGDDLMYENSLKGRFAISRDNAKNTVYLQMNSLKPEDTAVYYCAASTRFITALAANYDYWGQGTLVTVSS
- binding result [1]: binds
- binding result [2]: binds

B10: 11G07 (VHH)
VHH: EVQLVESGGGLVQAGGSLRLSCAASGRSFSGDTMGWFLQAPGKEREFVAGINWSSRSTNYADSVKGRFTISRDNAKNTVYLQMNTLKPEDTAVYYCAAGPPSPYIYSRPDLYTYWGQGTQVTVSS
- binding result [1]: binds
- binding result [2]: binds

B11: KY704059 (VHH)
VHH: EVQLVESGGGLVQAGGSLRLSCTASGRSFSRYTMGWFRQAAGKERVFVAHIAWSGGTRYYADSVKGRFTISRDNAKNTVWLQMNSLKPEDTAVYYCAATSQTGLIVVNTRDYEIWGQGTLVTVSS
- binding result [1]: binds
- binding result [2]: binds

B12: 11G10 (VHH)
VHH: EVQLVESGGGSVQAGGSLRLSCAASGRVAMGWFRQAPGKEREFVAAISASGGSSSYADSVKGRFTISRDSAKSTVYLQMNSLEPEDTAVYYCAARARTLGWVSADVSAYDYWGQGTQVTVSS
- binding result [1]: binds
- binding result [2]: binds

B14: KY704047 (VHH)
VHH: EVQLVESGGGLVQAGGSLRLSCAASGIPFSRYHMGWFRQAPGKEREFVASVSWSGQNTYYADSVKGRFTISRDNAKNTGNLQMNSMKPEDTAVYYCAAGSRYYTDIIPNYYRYWGQGTLVTVSS
- binding result [1]: binds
- binding result [2]: binds

B15: KY704049 (VHH)
VHH: EVQLVESGGGVVQTGGSLRLSCAASGRYAMGWFRQVSGKEREFVAFISASGGSTYYADSVKGRFTISRDNAKTTLAYLQMISLKPEDTAVYYCATSGGIFRGLYYDTRNYNYWGQGTLVTVSS
- binding result [1]: binds
- binding result [2]: binds

B16: KY704054 (VHH)
VHH: EVQLVESGGGLVQTGGSLRLSCAASGIYFRLYTMGWYRQAPGNQRELVALITSTRSTHYADSVKGRFTISRDNAKNTLYLQMNSLKPEDTAVYYCNAHNGQGDFWGQGTLVTVSS
- binding result [1]: binds
- binding result [2]: binds

B17: KY704060 (VHH)
VHH: EVQLVESGGGLVQSGDSLRLSCAASGRSFSRSTMGWFRQAPEKEREFVAVISWAGTTTYYHDSVKGRFTISRDNAKNTVYLQMNSLKPEDTAVYYCAGGRDARILRNARDYDYWGQGTLVTVSS
- binding result [1]: binds
- binding result [2]: binds

Other lines, results leading:

- koff [3]: 0.005 s⁻¹
- EC50 [4]: 5 nM
- IC50 (M) inhibition of ERK phosphorylation induced by 1 nM MSP through RON on T-47D cells; purified nanobody, HTRF phospho-ERK [5]: 1.8e-08 M
- maximum inhibition (efficacy) of MSP-induced ERK phosphorylation in T-47D cells [5]: 100%
B4: nanobody 2D07 (VHH)
VHH: EVQLVESGGGLVQPGGSLRLSCAASGFTFRAYNMNWLRQAPGKGLEWVSVISGGGGGTLYADSVKGRFTISRDNAKNTLYLQMNSLKPEDTAVYYCAGSDFFADYGRPRHEYRYWGQGTQVTVSS
notes: From a llama immunised with rhRON; found by conventional screening and by NGS; source: E. coli, crude periplasmic extract; E. coli, purified; not shown: FLAG3, C-terminal, kept

- koff [3]: 0.00029 s⁻¹
- EC50 [4]: 0.33 nM
- IC50 (M) inhibition of ERK phosphorylation induced by 1 nM MSP through RON on T-47D cells; purified nanobody, HTRF phospho-ERK [5]: 4.9e-09 M
- maximum inhibition (efficacy) of MSP-induced ERK phosphorylation in T-47D cells [5]: 100%
B13: nanobody 5G04 (VHH)
VHH: EVQLVESGGALVQAGDSLRVSCVASGRTFSHYAMGWFRQAPGKQREFVAAISWDGDSTSYANSLKGRFTISRDNAKNTGYLYMNSLIPEDTAVYYCAAGPNFSTLARRYDYWGQGTLVTVSS
notes: as for B4

- binding result [1]: binds
- binding result [2]: binds
B18: KY704038 (VHH)
VHH: EVQLVESGGGLVQAGGSLRLSCASSGIAFRLRTMDWYRQAPGNQREWVATITSDYSTDYADSVKGRFTISRDNAQNTVYLQMNSLKPEDTAVYYCHAGGVVWGQGTLVTVSS

- binding result [1]: binds
- binding result [2]: binds
B19: KY704050 (VHH)
VHH: EVQLVESGGGLVQAGGSLRLSCVASGRTLSSYTMGWFRQAPGKEREFLALITWSGGSTHYADSVKGRFTISRDNPKNTAYLQMGSLKPEDTAVYFCAARFRGVIATMARDYDYWGQGTLVTVSS

- binding result [1]: binds
- binding result [2]: binds
B20: KY704055 (VHH)
VHH: EVQLVESGGGVVQAGGSLRLSCAASGRYGVGWFRQPPGKEREFVSAVSKSGGSTYYEDSVKGRFTISRDGAKNTVYLQMNSLKPEDTAVYYCAADGGGYSAYYYYTHQTEYEYWGQGTLVTVSS

- binding result [1]: binds
- binding result [2]: binds
B21: KY704056 (VHH)
VHH: EVQLVESGGGLVQAGGSLRLSCAASGRYVMGWFRQAPGKEREFVAAITRSGATTNYADSVKGRFTISRDSAKITVYLQMDSLKPEDTAVYYCAASGRYYTAAVEGANYDYWGQGTLVTVSS

- binding result [1]: binds
- binding result [2]: binds
B22: 11F03 (VHH)
VHH: EVQLVESGGGLVQAGGSLRLSCVVSGIYFRLYTMNWYRQALGKQREYVAMITNDGSTNYGASIKGRFTISRDNAKNTVYLQMNNLNPEDTAVYYCNAHDYWGQGTQVTVSS

- binding result [1]: binds
- binding result [2]: binds
B23: KY704045 (VHH)
VHH: EVQLVESGGGLVQAGGSLRLSCAASGRTFSSYIMAWFRQAPGKERDVVATVSWGGETTYYADSVKGRFTISRDNAKNTVYLQMNSLKPEDTAVYYCAASHARGYWHTPFTVADVGSWGQGTLVTVSS

- binding result [1]: binds
- binding result [2]: binds
B24: KY704041 (VHH)
VHH: EVQLVESGGGLVQAGGSLRLSCAASGRAFSSYAMGWFRQAPGKEREFVAVISGRGGVTYYAASVKGRFTISRDNAKNTVLLQMSSLKPEDTGVYYCAAGPNIGVLTDPAYSGGDWGQGTLVTVSS

- binding result [1]: binds
- binding result [2]: binds
B25: KY704058 (VHH)
VHH: EVQLVESGGGLVQAGDSLRLSCAASGGTLNGYAMAWFRQAPGKERDVVATINWSGSWKYYADSVKGRFTISRDNAKGTVYLQMNSLKPEDTAVYRCAARRGGGNYYTRAVDFDYWGQGTLVTVSS

- binding result [1]: binds
- binding result [2]: binds
B26: KY704061 (VHH)
VHH: EVQLVESGGGLVQAGGSLRLSCAASGRTFSNDAMGWFRQAPGKERAFVGVINWNGVTTRYTDSVEGRFTISRDNAKNTVYLQMNSLKPEDTAVYFCAAGGGPVAVSSGRSAYWGQGTLVTVSS

- binding result [1]: binds
- binding result [2]: binds
B27: KY704048 (VHH)
VHH: EVQLVESGGGLVQAGGSLRLSCAASGDTFSTYGMGWFRQAPGKEREIVARITWNRRTYYADSVKGRFTISRDNAKNAAYLEMNSLKPEDTAVYMCAAVRGDNLFHTRPRDYDYWGQGTLVTVSS

Reference: publication PMC5385344, “Large Diversity of Functional Nanobodies from a Camelid Immune Library Revealed by an Alternative Analysis of Next-Generation Sequencing Data” (Frontiers in Immunology, 2017)
